Ends that are not written are not given here.

Assay [1] addresses wild-type epidermal growth factor receptor (wtEGFR) (human) (UniProt P00533). Nature of the assay: Scatchard, A431 cells.
Assay [2] concerns the target wtEGFR-FLAG (N-terminally FLAG-tagged wild-type EGFR on Ba/F3 cells) (human) (UniProt P00533). Nature of the assay: FACS median fluorescence, Ba/F3 cells; reference anti-FLAG M2.
Assay [3] concerns the target C271A/C283A-EGFR (full length, on Ba/F3 cells) (human) (UniProt P00533). Put plainly: FACS median fluorescence, Ba/F3 cells, four clones; reference anti-FLAG M2.
Assay [4] deals with T1, 15N-labelled EGFR287-302 peptide with methionine mutated to leucine (human, not fully specified (bridges); cysteine pairing not given here; also: 15N-labelled (residues not given here)).
T1 peptide: CGADSYELEEDGVRKC
Nature of the assay: NMR, perturbation of 15N HSQC spectra.

The target of assay [5] is T2, EGFR peptide 287-302 (806 peptide epitope) (human, not fully specified (bridges); printed as 287CGADSYEMEEDGVRKC302; cysteine pairing not given here).
T2 peptide: CGADSYEMEEDGVRKC
Nature of the assay: BIAcore, immobilised peptide 287-302, antibody 200 nM. Background: In SPR one partner is held on a chip, and binding of the other changes the refractive index at the surface.

Assay [6] has as its target T3, Peptide C: LEEKKGNYVVTDH(K-Biot)-OH (biotin on the added C-terminal Lys (K-Biot)).
T3 peptide: LEEKKGNYVVTDHK
Put plainly: BIAcore, Peptide C on streptavidin chip.

For the molecule monoclonal antibody 528, in assay [1], the binding sites per cell (sites per cell) is 2e+06 and the receptors per cell (receptors per cell) was found to be 2e+06. Besides, the ratio of antibody binding mAb 528/M2 in assay [2] stood at 1.37. The ratio of antibody binding mAb 528/M2 in assay [3] turned out to be 1.08.

B1: Fab fragment of mAb806 (Fab, V domains shown)
VH: DVQLQESGPSLVKPSQSLSLTCTVTGYSITSDFAWNWIRQFPGNKLEWMGYISYSGNTRYNPSLKSRISITRDTSKNQFFLQLNSVTIEDTATYYCVTAGRGFPYWGQGTLVTVSA
VL: DILMTQSPSSMSVSLGDTVSITCHSSQDINSNIGWLQQRPGKSFKGLIYHGTNLDDEVPSRFSGSGSGADYSLTISSLESEDFADYYCVQYAQFPWTFGGGTKLEIKR
notes: papain Fab of the intact mAb; also called Fab806
Turning to B1, the binding result in assay [4] is reported as “binds”.

B2: monoclonal antibody 1133 (mAb1133) (antibody, V domains shown)
VH: DVQLQGSGPSLVKPSQSLSLTCTVTGYSITSDYAWNWIRQFPGNKLEWMGYISYSGNTRYNPSLRSRISITRDTSKNQFFLQLNSVTTEDTATYYCATAGRGFPYWGQGTLVTVSA
VL: DILMTQSPSSMSVSLGDTVNITCHSSQDINSNIGWLQQKPGKSFKGLIYHGTNLDDGVPSRFSGSGSGADYSLTISSLESEDFADYYCVQYGQFPWTFGGGTKLEIKR
notes: murine IgG2a
Turning to B2, the “maximal binding (RU)” value in assay [5] turned out to be 800 RU.

B3: monoclonal antibody 806 (mAb806) (antibody, V domains shown)
VH: DVQLQESGPSLVKPSQSLSLTCTVTGYSITSDFAWNWIRQFPGNKLEWMGYISYSGNTRYNPSLKSRISITRDTSKNQFFLQLNSVTIEDTATYYCVTAGRGFPYWGQGTLVTVSA
VL: DILMTQSPSSMSVSLGDTVSITCHSSQDINSNIGWLQQRPGKSFKGLIYHGTNLDDEVPSRFSGSGSGADYSLTISSLESEDFADYYCVQYAQFPWTFGGGTKLEIKR
notes: murine IgG2b; also called m806
For the molecule B3, the binding result in assay [6] is given as “no binding (tested: 100 nM)”.
